From publication PMC5461814

Assays:
[1] = biological target: Dityrosine cross-linked Aβ42 dimer [Aβ(M1-42)]DiY; assay: centrifugation with thioflavin T read-out
[2] = biological target: Dityrosine cross-linked Aβ42 dimer [Aβ(M1-42)]DiY; assay: SEC

ThT signal of the end-stage sample removed by centrifugation [1]: 80%
decrease of the dimer peak at t = max [2]: 40%
Substance: Dityrosine cross-linked Aβ42 dimer [Aβ(M1-42)]DiY (peptide)
